B1: SlpA (Deinococcus radiodurans outer membrane protein) (natural protein, UniProt Q9RRB6 23-1167, looked up)
chain: APVSAPQVPALTDVPAGHWAKDAIDRLVSRGVILGYPDGTFRGTQNLTRYEAAIIIARLLDQMRDGETPAGMTAEDMTALQNAIQELAADLAALGVRVSDLEANAVSKDDFARLEARIEEVAAAGGEQGATEALQGQIDDLTARVDEYDALRADVDDNASSIAALNDLTVLLNQDILDLQDRVSAVEAAQADFVQRSDFDALGGRVTTVETRVETVNNSLTGRIAALERNAFSVKPSLTIGYSVSRTSRNFDVDRLFPLNADGTVANNAFTSGGIDTDTGAQRRDFGDFGNASDPVVAGAAGLYGFADGVSYTVYFTDGSTATFDGLNPADYKVPTGKVIDTTKGRNGFGFNNLARYKEGSTDIGISLGFDTSGQFSQVTSGTGGSLFSTAGRLQVNQIDLNFGLVTGLPSDAYVDTNGNGKKDDGEATGRGTYLGSGGTAAILRDPAGNVYRPVFFRFKNATTQFSVGNNPVIVTLGQQQKFYFSDYVFDNNYDGRGDGFTVTVDGSNVPVIGAWKPQIKGVYGSRSGLDGTAEAGYGVYYRGVRAQITPVGTLTAGIHYAQEGRDMFGAAQNTTSTPSDVTTYGADLHGKAFGVELHSEYATSRVRPNTANAAVQTSNAFYARVATRKDNLAFDLNTPAAKFGNDTFGVSLYDLNYRKIDAGYNNVAGISEYGYGSYSRTSAQNIAYNPDTGVTAPFANLDRQAYTDANNDGTSDRNADGTVVATNTKIGQMGFGVKAAANLGPVAIGGYYDTSTGANGDNANRMTEAGGSAKVAYSIFSLRGTYNTLDSNRPQIYRDAAGTQIIGDAKVRRYAVQADVTPGLGLFVGAYYRDVNVNGVRSTTDRGLLGRGYLASSFEPGVGNNAYRTGLRCADNNFGTGTRDIDGVGGVLNPAVNLDQSRTATCFTSYGVEAGHAGDNANALVKDLFFRVGYSRVYVPTTATATTGDFSGSVTYGDARYDRKVGVANVRLAGSFSTTNTQLDSRPAGTRGAVGLIVRTDPLENVPFRPQFNGQVGYYTADNRVAAGNYNANATKYGAGVVLNDFLLPQTKIGVRYDGYMAQNRQYTPFDGDGTQGYFSDANNNRRTNLNGVYVEGAYQDLIFSYGTYTLSQKDLNGVEYGSGINNGQPARGQTFKISYKVNF
notes: SlpA, Deinococcus radiodurans, UniProtKB Q9RRB6; Native protein from the source organism, no tags; Only residues 215-1167 are well resolved in the cryo-EM map; also called SlpA protein complex; SlpA porin; source: purified from D. radiodurans (ATCC BAA816): DDM extraction, HiTrap-Q, Superose 6 Increase
B2: uncharacterized protein DR_0644 (natural protein, Deinococcus radiodurans, UniProt Q9RWM2 20-206, looked up)
chain: GPTEGTYTLAPQAVVKPAGPVYAPAGTAKISETLGVTRTTITLTGMAPYAIYVAHYHKMGTAAPMGSAPATNTNMAMSSTDATATTTASTSTTSTDTTVAASTDMTTTVTMAPVTAAPNPCNSDGPAIMESRMIAQASADGKVTLTGIVPTALIRDAAYINVHHGRDFSGALADSGVICTPITMTMR
notes: uncharacterized protein DR_0644, Deinococcus radiodurans; the mature protein, fitted from the mature N-terminus Gly20 to the C-terminus Arg206, with an unstructured loop 82-133; Identified from the map density combined with structural modelling (rigid-body fit of an AlphaFold2 model); also called accessory protein; additional protein density; source: endogenous, D. radiodurans; present with the …

Experiments:
[1] = biological target: the molecule itself; assay: cryo-EM structure; single-particle analysis of SlpA purified from D. radiodurans in detergent (20 mM HEPES/NaOH pH 7.5, 150 mM NaCl, 0.02 % DDM; 4.45 mg/mL); C3 symmetry; global resolution 3.25 Å
[2] = biological target: B1; assay: as above; conditions: both partners purified

| binding result [2] | Binder | stoichiometry N [1] |
| --- | --- | --- |
|  | B1 | 3 |
| binds | B2 | 3 |
